In patent US20260258115A1:

Experiments:
[1] = target: RSV postfusion F (postF, F deltaFP) (Respiratory syncytial virus); assay: BLI, IgG on sensor, 100 nM antigen
[2] = target: RSV prefusion F (preF, DS-Cav1) (Respiratory syncytial virus); assay: BLI, IgG on sensor, 100 nM antigen
[3] = target: RSV prefusion F (preF), DS-Cav1 (Respiratory Syncytial Virus); assay: BLI, IgG on anti-human IgG sensor, 100 nM antigen
[4] = target: Respiratory Syncytial Virus fusion glycoprotein (RSV F) on RSV-A2 virus (Respiratory Syncytial Virus subtype A (RSV-A2)); assay: cell-based or functional assay

Binder | Kd [1] [nM] | Kd [2] [nM] | Kd [3] [nM] | Neutralization IC50 (RSV subtype A) [4] [µg/mL]
ADI-41235 (antibody, V domains shown) VH: QVQLQQWGAGLLKPSETLSLTCGVYGESFSGHYWSWIRQPPGKGLEWMGEIHHSGTTNYNPSLKSRVTISVDTSKNQFSLKLNSVTAADTAVYYCARNPAEDILTGYSPPFHYYYMDVWGKGTTVTVSS VL: QSVLTQPPSVSGAPGQRVTISCTGSSSNIGAGYDVHWYQQIPGTAPKLLIHSNNNRPSGVPDRFSGSKSGTSASLAITGLQAEDEADYYCQSYDSSLSVVFGGGTKLTVL | 3.24 | 4.72 | – | –
ADI-41241 (antibody, V domains shown) VH: QVQLVQSGAEVKKPGASVQVSCKASGYTFTGDYMHWVRQAPGQGLEWMGRINPNSGGTNYAQKFQGRVTMTRDTSISTAYMELSRLRSDDTAVYYCARAAAEYSSSSPTSYYYMDVWGKGTTVTVSS VL: EIQMTQSPSSLSASVGDRVTITCRASQNIYSFLNWYQQKPGKAPKLLIYAASSLQSGVPSRFSGSGSATDFTLTISSLQPEDFATYYCQQSYSPPQITFGQGTKVDIK | 0.927 | 3.84 | – | –
ADI-41248 (antibody, V domains shown) VH: QVQLVQSGGGVVQPGRSLRLSCAASGFTFSSYSMHWVRQAPGKGLEWMAVCWYDGSNIYYADSVKGRFTISRDNSKNTVYLQMNSLRAEDTAVYYCARDDRYCSGGTCLSAFDIWGQGTMVTVSS VL: ETTLTQSPSSLSASVGDRVTITCRASQSISSYLNWYQQKPGRAPKLLIYTTSSLQSGVSSRFSGSGSGTDFTLTINSLQPEDFATYYCQQSYSTPNTFGQGTKVEIK | 0.392 | 3.35 | – | –
ADI-41236 (antibody, V domains shown) VH: QVQLVQSGGGLVKPGGSLRLSCTASGFTFSDYYMDWIRQAPGKGLEWVSSISSSSTYTKYADSVKGRFTISRDNAKNSLFLQMNSLRAEDTAVYYCVRNLGPYCSSTSCFVFDYWGQGTLVTVSS VL: QSVLTQPPSVSGAPGQRVSISCTGSSSNIGAGYEVHWYKQVPGTAPRLLMYDNTNRPSGVPDRVSGSKSGTSASLAITGLQAEDEADYYCQSYDNSLNKSVFGGGTKVTVL | 61.3 | – | – | –
ADI-41234 (antibody, V domains shown) VH: QVQLVQSGGGVVQPGRSLRLSCAASGFTVSSYAIHWVRQSAGKGLEWVAVEGRFTISRDNSKNTLYLQMNSLRAEDTAVYYCARLSEALVEPAAHTQYKYHYGLDVWGQGTTVTVSS VL: EIVLTQSPLSLPVTPGEPASISCKSSQSLLDSNGYNYLDWYLQKPGQSPQLLIYLVSNRASGVPDRFSGSGSGTDFTLKISRVEAEDVGIYYCMQALQTPWTFGQGTKVEIK | – | – | 1.46 | 0.1
ADI-41244 (antibody, V domains shown) VH: QVTLKESGGGLIQPGGSLRLSCAVSGFTVSSKYMSWVRQAPGKGLEWVSVIYGGGSTYYTDSVKGRFTISRDNSNNTLYLQMNSLRAEDTAIYYCAREARSYNYDYVGNDAFDIWGQGTTVTVSS VL: DIVLTQTPDSLAVSLGERATINCKSSQSVLNNFNNKNYLAWYQQKPGQPPKLLIYWASTRESGVPDRFSGSGSGTDFTLTITSLQAEDVAIYYCQQYYRTPPYTFGQGTKVDIK | 0.843 | – | – | –
ADI-41289 (antibody, V domains shown) VH: EVQLVQSGAEVKKPGESLKISCKGSGYSFSSFWIGWVRQMPGKGLEWMGIIYPGDSDTRYSPSFQGQVTISADQSIRTAYLQWNSLKASDTGLYYCAKGGLGDVEMATIAVWGQGTLVTVSS VL: QSVLIQPASVSGSPGQSITIPCTGTSSDVGSYNLVSWYQHHPGKAPKLIISEGSKRPLGVSNRFSGSKSGNTASLTISGLQAEDEADYYCSSYVRSRTFNYVFGTGTKLTVL | 0.881 | – | – | –
ADI-41243 (antibody, V domains shown) VH: QVQLVQSRAEVKKPGESLKISCKGSLHSFSNNWIGWVRQMPGKGLEWMGIIFPDDSDTRYSPSFQGQVTISADKSISTAYLQWSSLKASDTAIYYCGTVVTLIQGVADWGQGTLVTVSS VL: QPVLTQPHSVSESPGKTVTISCTRSSGSIDSSYVQWYQQRPGSSPTTVIYEDNLRPSGVPDRFSGSIDSSSNSASLTISGLKTEDEAEYYCQSYDSSNPVVFGGGTKLTVL | 0.418 | 3.55 | – | –
ADI-41264 (antibody, V domains shown) VH: EVQLVESGGGLVKPGGSLRLSCAASGFTFSNTWMSWVRQAPGKGLEWVGHIKSKTDGGTTDYAAPVKGRFTISRDDSKSILNLHLNSLKTEDSAVYYCAALPPISGWYYTPGFWGQGTLVTVSS VL: SYELTQPPSMSVSPGQTARITCFGDAVPKKYVYWYQQKSGQAPVMVIYDDRRRPSGIPERFSGSSSGARATLTISGAQVEDEADYYCYSTDGSGNPSFGGGTKLTVL | 0.484 | – | – | –
ADI-41247 (antibody, V domains shown) VH: QVQLVQSGAEVKKPGASLQVSCKASGYTFTDSYFHWVRQAPGQGLEWMGRISPHSGGTNYAQKFQGRVTMTRDTSISTAYLELSRLRSDDTAVYYCATEGPRGPFRFDPWGQGTLVTVSS VL: NFMLTQPHSVSESPGKTVTISCTRSSGSIASNYVQWYQQRPGSSPTTVIYEDNQRPSGVPDRFSGSIDSSSNSASLTISGLMTEDEADYYCQSYDSSNWVFGGGTKLTVL | 1.02 | 2.76 | – | –
ADI-41263 (antibody, V domains shown) VH: QVQLVQSGAEVKKPGASVKVYCKASGYTFTSHYIHWVRQAPGQGLEWMGRMNPSGGSPMYAQKFQERVTMTRDTSTSTAYMELRSLRSEDTAVYYCAMAKFYSFDYWGQGTLVTVSS VL: QSVLTQPHSVSESPGKTVTISCTRSSGSIASYFVHWYQQRPGSAPTIVIYEDNQRPSGVPDRFSGSIDSSSNSASLTISGLKTEDEADYYCQSYDSSNWVFGGGTKLTVL | 0.345 | 2.9 | – | –
ADI-41265 (antibody, V domains shown) VH: EVQLVQSGAEVKKPGESLTISCKDSGYSFTSYWIGWVRQVPGKGLEWMGIVYPGDSRYSPSFQGHVTMSADKSINTAYLQWSTLKASDTAMYYCAKVVTYGSAIRWFESWGQGTLVTVSS VL: QSVLTQPPSVSAAPGQKVSISCSGSSSNIGNNFVSWYQQVPGTAPKLLIIDNNKRPSGIPDRFSGSKSGTSATLGITGLQTGDEADYYCGTWDSRLSAEVFGGGTKLTVL | 3.08 | 15 | – | –
ADI-41250 (antibody, V domains shown) VH: QVQLQQWGAGLLKPSETLSLTCAVSGESLTGYFWSWIRQPPGKGLEWIGEVSHSGSTNYNPSLKSRVTMSVDTSKTQFSLKLNSVTAADTAVYYCARGYDYWSGTARYFDYWGQGILVTVSS VL: QPVLTQPASVSGSPGQSITISCTGTSSDVGGYNYVSWYQQHPGKAPKLMIYDVSNRPSGVSSRFSGSKSGNTASLTISGLQAEDEGDYYCSSYRSSTTSRVFGGGTKVTVL | 0.504 | 0.731 | – | –
ADI-41240 (antibody, V domains shown) VH: QVQLQQWGAGLLKPSETLSLICDVYGGSFSDYYWSWIRQSPGKGLEWIGEINHSGSTSFHPSLKSRISISIDTSNNQFSLNLSSMTAADTAVYYCARGTLRGYFDYWGQGTLVTVSS VL: EIVLTQSPSTLSAFVGDRVTITCRASQSISRWLAWYQQKPGKAPNLLISEASSLESGVPSRFSGSGSGTEFTLTISSLQPDDLGTYYCQQYNGYLWTFGQGTKVEIK | 1.2 | 2.15 | – | –
ADI-41252 (antibody, V domains shown) VH: EVQLVQSGAEVKKPGESLKISCMGSGYNFPNYWIGWVRQMSGKGLEWMGIIYPDDSDTTYSPSFQGQVIFSADKSISTAYLQWSSLKASDTAMYFCVRLDKTTQIDFWGQGTLVTVSS VL: EIVLTQSPSSLSASVGDRVTITCQASQDISNYLNWYQQKPGKAPKLLIYDVSNLETGVPSRFSGSGSGTDFTFTISSLQPEDIATYYCQQHDNLPLTFGQGTRLEIK | 1 | 1.37 | – | –
